Test results as given in PMC8121366, “Crystal and solution structures reveal oligomerization of individual capsid homology domains of Drosophila Arc” (PLoS ONE, 2021).

T1: Drosophila Arc1 N-lobe (Drosophila)
T1 chain: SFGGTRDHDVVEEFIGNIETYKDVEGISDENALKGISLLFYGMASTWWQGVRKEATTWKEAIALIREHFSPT

B1: Drosophila Arc1 N-lobe (domain or fragment)
chain: T1 chain
modifications: limits inferred from the homologous dArc2-NL construct (6SIB, 37-109), the 8.2 kDa monomer mass and the dArc1-CL start at 123 (6SID); start uncertain by about 1 residue; dimer in solution / limits …
B2: Drosophila Arc2 C-lobe (domain or fragment)
chain: KPSYQIYMEIFETKQSYDEVIDSFICKQRALLAKLPEGRHDEETELDFIYGLMQPKYRESIPRHEVKTFRELLDRGRTVERTRH
notes: Arc2 (dArc2) of Drosophila, isolated C-lobe; monomeric mass 10 kDa; Dimer in the crystal and in solution; also called dArc2-CL; source: E. coli BL21(DE3), purified (Ni-NTA, TEV cleavage, second Ni-NTA, amylose resin, Superdex S200); not shown: His tag, N-terminal, cleaved; MBP, N-terminal, cleaved
B3: Drosophila Arc2 N-lobe (domain or fragment)
chain: RFSGQRDHDAVDEFINAVETYKEVEGISDKDALKGLPLLFKSIAVVWWKGVRRDAKTWSDALQLLRDHFSPT
notes: monomeric mass 8.4 kDa; Tetramer in solution (SEC-MALS, SAXS); domain-swapped dimer in the crystal; also called dArc2-NL; source: E. coli BL21(DE3), purified (Ni-NTA, TEV cleavage, second Ni-NTA, Superdex S200); not shown: His tag, N-terminal, cleaved; MBP, N-terminal, cleaved
B4: Drosophila Arc1 C-lobe (domain or fragment)
chain: KPAYQIYMEFFQNKQDDHDPIDTFVIQKRALLAQLPSGRHDEETELDLLFGLLNIKYRKHISRHSVHTFKDLLEQGRIIEHNNQED
notes: Arc1 (dArc1) of Drosophila, isolated C-lobe; monomeric mass 11 kDa; Dimer in the crystal and in solution; also called dArc1-CL; source: E. coli BL21(DE3), purified (Ni-NTA, TEV cleavage, second Ni-NTA, amylose resin, Superdex S200); not shown: His tag, N-terminal, cleaved; MBP, N-terminal, cleaved

Columns and labels:
[1] = biological target: T1, Drosophila Arc1 N-lobe; experiment: SEC-MALS + other: SAXS; SEC-MALS on Superdex S200 Increase 10/300 in TBS (20 mM Tris-HCl pH 7.4, 150 mM NaCl); SEC-SAXS on Superdex S200 Increase 3.2 in TBS, injected at 5 mg/ml, +10°C; details: both partners purified
[2] = biological target: the molecule itself; experiment: as above

Binder | stoichiometry N [1] | stoichiometry N [2]
B1 | 2 | 
B2 |  | 2
B3 |  | 4
B4 |  | 2
